Starred links: 1 amine or outer side, 2 acyl side, 3 side chain; linkers in the order of their positions; H or OH if unused. Positions of bridges follow the written chain, without caps; N, C: chain ends. Non-standard residues stand in square brackets, D forms with d. Primed or numbered codes have the meaning given here. *: point of attachment. PyrS2″ = (S)-3-amino-1-((pent-4-en-1-yloxy)carbonyl)pyrrolidine-3-carboxylic acid (stapling residue), C=CCCCOC(=O)N1CC[C@@](N[*:1])(C(=O)[*:2])C1; B5(4) = 2,2-bis(4-pentenyl)glycine = 2-amino-2-(pent-4-en-1-yl)hept-6-enoic acid (stitching residue), C=CCCCC(CCCC=C)(N[*:1])C(=O)[*:2]; B5(33) = 2-amino-2-(pent-4-en-1-yl)hept-6-enoic acid (bis-pentenylglycine, two olefin side chains), C=CCCCC(CCCC=C)(N[*:1])C(=O)[*:2]; B5(20) = 2-amino-2-(pent-4-en-1-yl)hept-6-enoic acid = bis(4-pentenyl)glycine, stitching residue, C=CCCCC(CCCC=C)(N[*:1])C(=O)[*:2]; PyrS2 = (S)-3-amino-1-((pent-4-en-1-yloxy)carbonyl)pyrrolidine-3-carboxylic acid, C=CCCCOC(=O)N1CC[C@@](N[*:1])(C(=O)[*:2])C1; S10 = (S)-2-amino-2-methyldodec-11-enoic acid, C=CCCCCCCCC[C@](C)(N[*:1])C(=O)[*:2]; mPEG2 = N-terminal 3-(2-methoxyethoxy)propanoic acid, COCCOCCC(=O)*; Phe(2-Cl) = N[C@@H](Cc1ccccc1Cl)C(=O)O; Abu(4,4-F2) = N[C@@H](CC(F)F)C(=O)O; Bta = N[C@@H](Cc1csc2ccccc12)C(=O)O; αAllylPro = C=CC[C@@]1(C(=O)O)CCCN1; tBuAla = CC(C)(C)C[C@H](N)C(=O)O; 3Thi = N[C@@H](Cc1ccsc1)C(=O)O; S8 = C=CCCCCCC[C@](C)(N)C(=O)O; Thr(ol) = C[C@@H](O)[C@H](N)CO; Propanoyl(3-OMe) = COCCC(=O)*; Leu(ol) = CC(C)C[C@H](N)CO; Octanoyl = CCCCCCCC(=O)*; Dab = NCC[C@H](N)C(=O)O; Nva = CCC[C@H](N)C(=O)O; Abu = CC[C@H](N)C(=O)O; Dap = NC[C@H](N)C(=O)O; Alaol = C[C@@H](CO)N*; Ms = CS(=O)(=O)*
B1: I-1260 (peptide)
peptide: XDXXDDAAFTXFXQ
modifications: not fully specified; MeSO2-PL3-Asp-Npg-B5-Asp-Asp-Ala-Ala-Phe-Thr-S8-2C1F-BztA-Gln-NH2; stapled by olefin metathesis (PL3-B5 and B5-S8)

molecular target: full-length beta-Catenin (Uniprot ID P35222) (Homo sapiens (Human)) (UniProt P35222); test: fluorescence polarization competition, competitor 5FAM-TCF4 10-53
Target sequence in this assay (P35222 2-781 limits assumed): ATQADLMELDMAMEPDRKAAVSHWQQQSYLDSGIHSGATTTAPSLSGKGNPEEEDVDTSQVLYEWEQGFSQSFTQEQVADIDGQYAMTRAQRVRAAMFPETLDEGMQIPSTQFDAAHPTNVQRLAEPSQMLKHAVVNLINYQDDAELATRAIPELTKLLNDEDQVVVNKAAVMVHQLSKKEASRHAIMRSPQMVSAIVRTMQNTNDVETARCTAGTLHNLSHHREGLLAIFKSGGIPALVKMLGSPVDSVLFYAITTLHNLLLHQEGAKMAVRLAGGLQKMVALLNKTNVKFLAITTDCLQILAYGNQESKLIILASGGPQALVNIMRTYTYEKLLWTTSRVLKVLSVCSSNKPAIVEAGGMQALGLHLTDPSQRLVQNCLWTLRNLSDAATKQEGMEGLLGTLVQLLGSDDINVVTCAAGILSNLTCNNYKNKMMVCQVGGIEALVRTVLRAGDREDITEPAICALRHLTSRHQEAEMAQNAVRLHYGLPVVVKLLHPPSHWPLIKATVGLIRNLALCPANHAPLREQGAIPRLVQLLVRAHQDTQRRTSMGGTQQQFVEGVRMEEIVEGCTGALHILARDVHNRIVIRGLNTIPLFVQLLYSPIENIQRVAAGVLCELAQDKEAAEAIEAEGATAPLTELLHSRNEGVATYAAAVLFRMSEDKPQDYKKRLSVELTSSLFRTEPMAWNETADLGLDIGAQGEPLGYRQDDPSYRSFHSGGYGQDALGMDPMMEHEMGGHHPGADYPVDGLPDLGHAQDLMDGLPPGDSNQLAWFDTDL

| Binder | IC50 |
| --- | --- |
| Octanoyl-[αAllylPro]D[tBuAla][B5(4)]DDAAFT[S8][Phe(2-Cl)][Bta]Q-NH2 (staple 1-4, 4-11) [I-1254] | 530 nM |
| Ac-[αAllylPro]D[tBuAla][B5(4)]DDAAFL[PyrS2″][Phe(2-Cl)][Bta][Leu(ol)] (staple 1-4, 4-11) [I-1251] | 1940 nM |
| Ac-[αAllylPro]D[tBuAla][B5(4)]DDAAFL[PyrS2″][Phe(2-Cl)][Bta]-Alaol (staple 1-4, 4-11) [I-1250] | 31 nM |
| XDXXDDAAFTXFXT (not fully specified; as printed: Ac-PL3-Asp-Npg-B5-Asp-Asp-Ala-Ala-Phe-Thr-S10-2C1F-BztA-Thr-NH2; stapled) [I-1262] | 1120 nM |
| mPEG2-[αAllylPro]D[tBuAla][B5(4)]DDAAFT[S8][Phe(2-Cl)][Bta]Q-NH2 (staple 1-4, 4-11) [I-1255] | 32 nM |
| B1 | 23 nM |
| Ac-[αAllylPro]D[tBuAla][B5(4)]DDAAFL[PyrS2″][Phe(2-Cl)][Bta][Thr(ol)] (staple 1-4, 4-11) [I-1249] | 17 nM |
| XDXXDDAAFTXFXQ (not fully specified; as printed: MeOPr-PL3-Asp-Npg-B5-Asp-Asp-Ala-Ala-Phe-Thr-S8-2C1F-BztA-Gln-NH2; stapled) [I-1261] | 31 nM |
| Ac-[αAllylPro]D[tBuAla][B5(33)]DTAAFT[PyrS2]F[Bta]S-NH2 (staple 1-4, 4-11 (inferred); not fully specified; printed as Ac-PL3-Asp-Npg-B5-Asp-Thr-Ala-Ala-Phe-Thr-PyrS2-Phe-BztA-Ser-NH2) [I-1263] | 43 nM |

molecular target: full-length beta-Catenin (Uniprot ID P35222) (Homo sapiens (Human)) (UniProt P35222); test: FP competition: full-length beta-catenin 10 nM + 5FAM-TCF4(10-53) 10 nM
Target sequence in this assay (P35222 whole entry): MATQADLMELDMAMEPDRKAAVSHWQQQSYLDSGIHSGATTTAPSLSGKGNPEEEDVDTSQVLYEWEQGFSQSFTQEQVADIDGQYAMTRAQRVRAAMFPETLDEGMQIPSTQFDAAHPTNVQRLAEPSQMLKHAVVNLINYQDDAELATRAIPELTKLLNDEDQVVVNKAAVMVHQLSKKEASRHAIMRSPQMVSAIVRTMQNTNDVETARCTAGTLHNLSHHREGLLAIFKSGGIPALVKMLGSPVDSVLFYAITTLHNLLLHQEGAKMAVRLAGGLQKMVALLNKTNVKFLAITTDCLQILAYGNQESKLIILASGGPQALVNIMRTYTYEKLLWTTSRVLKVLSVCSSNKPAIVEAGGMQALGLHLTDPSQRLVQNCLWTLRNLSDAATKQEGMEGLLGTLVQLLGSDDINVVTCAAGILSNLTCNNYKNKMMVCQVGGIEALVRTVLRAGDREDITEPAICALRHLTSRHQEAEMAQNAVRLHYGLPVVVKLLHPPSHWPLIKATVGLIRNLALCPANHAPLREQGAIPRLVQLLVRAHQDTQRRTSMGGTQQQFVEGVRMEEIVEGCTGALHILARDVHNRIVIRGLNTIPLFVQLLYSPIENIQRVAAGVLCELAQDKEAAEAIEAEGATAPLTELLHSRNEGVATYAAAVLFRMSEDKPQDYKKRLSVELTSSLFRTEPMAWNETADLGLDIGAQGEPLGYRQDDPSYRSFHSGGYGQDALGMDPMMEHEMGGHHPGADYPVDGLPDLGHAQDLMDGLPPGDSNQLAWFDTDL

| Binder | IC50 |
| --- | --- |
| Ac-[αAllylPro]D[Nva][B5(4)]DEAAFQ[S8]F[Bta]Q-NH2 (staple 1-4, 4-11; also: later eluting HPLC peak staple isomer) [I-523] | 44 nM |
| Ac-[αAllylPro]DA[B5(4)][Dab](Ms)EAAFN[S8]F[Bta]Q-NH2 (staple 1-4, 4-11) [I-531] | 5000 nM |
| Ac-[αAllylPro]D[Abu(4,4-F2)][B5(4)]DEAAFQ[S8]F[Bta]Q-NH2 (staple 1-4, 4-11) [I-503] | 84 nM |
| Ac-[αAllylPro]DA[B5(4)]DEAAFQ[S8]F[Bta][Abu]-NH2 (staple 1-4, 4-11) [I-509] | 99 nM |
| Ac-[αAllylPro]DA[B5(4)][Dap](Ms)EAAFN[S8]F[Bta]Q-NH2 (staple 1-4, 4-11) [I-529] | 5000 nM |
| Ac-[αAllylPro]DA[B5(4)][Dab](Ms)EAAFN[S8]F[Bta]Q-NH2 (staple 1-4, 4-11) [I-532] | 5000 nM |
| Ac-[αAllylPro]DI[B5(4)]DEAAFN[S8][3Thi][Bta]H-NH2 (staple 1-4, 4-11) [I-517] | 15 nM |
| Ac-[αAllylPro]DA[B5(4)][Dap](Ms)EAAFN[S8]F[Bta]Q-NH2 (staple 1-4, 4-11) [I-530] | 5000 nM |

molecular target: full-length beta-Catenin (Uniprot ID P35222) (Homo sapiens (Human)) (UniProt P35222); test: FP competition: displacement of 5FAM-TCF4(10-53) from full-length beta-catenin
Target sequence in this assay (P35222 whole entry): as above

| Binder | EC50 |
| --- | --- |
| Octanoyl-[αAllylPro]D[tBuAla][B5(4)]DDAAFT[S8][Phe(2-Cl)][Bta]Q-NH2 (staple 1-4, 4-11) [I-1254] | 530 nM |
| Ac-[αAllylPro]D[tBuAla][B5(4)]DDAAFL[PyrS2″][Phe(2-Cl)][Bta][Leu(ol)] (staple 1-4, 4-11) [I-1251] | 1940 nM |
| Ac-[αAllylPro]D[tBuAla][B5(4)]DDAAFL[PyrS2″][Phe(2-Cl)][Bta]-Alaol (staple 1-4, 4-11) [I-1250] | 31 nM |
| mPEG2-[αAllylPro]D[tBuAla][B5(4)]DDAAFT[S8][Phe(2-Cl)][Bta]Q-NH2 (staple 1-4, 4-11) [I-1255] | 32 nM |
| Ac-[αAllylPro]D[tBuAla][B5(4)]DDAAFL[PyrS2″][Phe(2-Cl)][Bta][Thr(ol)] (staple 1-4, 4-11) [I-1249] | 17 nM |

molecular target: full-length beta-Catenin (Uniprot ID P35222) (Homo sapiens (Human)) (UniProt P35222); test: fluorescence polarization competition; full-length beta-catenin + 5FAM-TCF4(10-53) probe
Target sequence in this assay (P35222 whole entry): as above

| Binder | EC50 |
| --- | --- |
| XDXXDDAAFTXFXT (not fully specified; as printed: Ac-PL3-Asp-Npg-B5-Asp-Asp-Ala-Ala-Phe-Thr-S10-2C1F-BztA-Thr-NH2; stapled) [I-1262] | 1120 nM |
| B1 | 23 nM |
| XDXXDDAAFTXFXQ (not fully specified; as printed: MeOPr-PL3-Asp-Npg-B5-Asp-Asp-Ala-Ala-Phe-Thr-S8-2C1F-BztA-Gln-NH2; stapled) [I-1261] | 31 nM |
| Ac-[αAllylPro]D[tBuAla][B5(33)]DTAAFT[PyrS2]F[Bta]S-NH2 (staple 1-4, 4-11 (inferred); not fully specified; printed as Ac-PL3-Asp-Npg-B5-Asp-Thr-Ala-Ala-Phe-Thr-PyrS2-Phe-BztA-Ser-NH2) [I-1263] | 43 nM |

molecular target: full-length beta-Catenin (Uniprot ID P35222) (Homo sapiens (Human)) (UniProt P35222); test: fluorescence polarization competition; 10 nM full-length beta-catenin + 10 nM 5FAM-TCF4(10-53) probe
Target sequence in this assay (P35222 whole entry): as above

| Binder | EC50 |
| --- | --- |
| Ac-[αAllylPro]DA[B5(4)][Dab](Ms)EAAFN[S8]F[Bta]Q-NH2 (staple 1-4, 4-11) [I-531] | 5000 nM |
| Ac-[αAllylPro]DA[B5(4)]DEAAFQ[S8]F[Bta][Abu]-NH2 (staple 1-4, 4-11) [I-509] | 99 nM |
| Ac-[αAllylPro]DA[B5(4)][Dap](Ms)EAAFN[S8]F[Bta]Q-NH2 (staple 1-4, 4-11) [I-529] | 5000 nM |
| Ac-[αAllylPro]DA[B5(4)][Dab](Ms)EAAFN[S8]F[Bta]Q-NH2 (staple 1-4, 4-11) [I-532] | 5000 nM |
| Ac-[αAllylPro]DI[B5(4)]DEAAFN[S8][3Thi][Bta]H-NH2 (staple 1-4, 4-11) [I-517] | 15 nM |
| Ac-[αAllylPro]DA[B5(4)][Dap](Ms)EAAFN[S8]F[Bta]Q-NH2 (staple 1-4, 4-11) [I-530] | 5000 nM |

molecular target: full-length beta-Catenin (Uniprot ID P35222) (Homo sapiens (Human)) (UniProt P35222); test: fluorescence polarization competition; displacement of 5FAM-TCF4(10-53) from full-length beta-catenin
Target sequence in this assay (P35222 whole entry): as above

| Binder | EC50 |
| --- | --- |
| Ac-[αAllylPro]D[Abu(4,4-F2)][B5(4)]DEAAFQ[S8]F[Bta]Q-NH2 (staple 1-4, 4-11) [I-503] | 84 nM |

— patent US20240116985A1, “STAPLED PEPTIDES AND METHODS THEREOF” (priority 2020, published 2024)
